Earlier results on one molecule are cited in paper PMC4479967 (Journal of molecular neuroscience : MN, 2015).

The conditions of the data set: Src-dependent; ref Daulhac et al., 1999.

B1: CCK: cholecystokinin (peptide, UniProt P06307 21-115, looked up)
Cholecystokinin: QPVPPADPAGSGLQRAEEAPRRQLRVSQRTDGESRAHLGALLARYIQQARKAPSGRMSIVKNLQNLDPSHRISDRDYMGWMDFGRRSAEEYEYPS
As to B1, the “Effect on ERK-1 and p85/p110-PI-3-K” value is given as “causes activation”.
